Measurements published in doi:10.1101/2020.05.14.095372.

Target: Mature human mitochondrial heat shock protein family D member 1 (HSPD1) (human), P10809
Experiment: cryo-EM structure
Conditions: remark: other sources report otherwise

stoichiometry N: 7
B1: Mature human mitochondrial heat shock protein family D member 1 (HSPD1), P10809 27-573 (natural protein)
chain: AKDVKFGADARALMLQGVDLLADAVAVTMGPKGRTVIIEQSWGSPKVTKDGVTVAKSIDLKDKYKNIGAKLVQDVANNTNEEAGDGTTTATVLARSIAKEGFEKISKGANPVEIRRGVMLAVDAVIAELKKQSKPVTTPEEIAQVATISANGDKEIGNIISDAMKKVGRKGVITVKDGKTLNDELEIIEGMKFDRGYISPYFINTSKGQKCEFQDAYVLLSEKKISSIQSIVPALEIANAHRKPLVIIAEDVDGEALSTLVLNRLKVGLQVVAVKAPGFGDNRKNQLKDMAIATGGAVFGEEGLTLNLEDVQPHDLGKVGEVIVTKDDAMLLKGKGDKAQIEKRIQEIIEQLDVTTSEYEKEKLNERLAKLSDGVAVLKVGGTSDVEVNEKKDRVTDALNATRAAVEEGIVLGGGCALLRCIPALDSLTPANEDQKIGIEIIKRTLKIPAMTIAKNAGVEGSLIVEKIMQSSSEVGYDAMAGDFVNMVEKGIIDPTKVVRTALLDAAGVASLLTTAEVVVTEIPKEEKDPGMGAMGGMGGGMGGGMF
